Experimental data as given in the DeepSol protein solubility set.

Test: soluble on expression in E. coli; label from the status in PepcDB or PDB records

Sequence | soluble on expression in E. coli
MSIIFAKLLLIILSYTHMKEKARNVYMVAGGVTKFAKASPEMDFRLRVKKAFDYAMNDAGLTLADIDGSVASYFSDHFQRQLMSGIMVQDYLGLVPKPSKRIEGGGATGGLAFQAGYEEIASGRMDTVAVYGFETMSHVNTWKGNEFIALASDTNFDYPIGGFYTGYYAMMAVRHMYEFGTTVEQLAKVSVKNHGNALHNPYAQSPMKLTVEDVRNAPMVSYPLTRLDVCAMSDGAAVAILASEDKAFEITDHPVLIKGIGTGTDSMRLADRPFGDVPLLPNEKPSDYKDLKYPGVHSFRAGRMAAKEAYEMAGITDPLNELDLIELHDAYTSSEIQTYEDLGLCKYGEGGQFIDEGKPELHGKIPVNPSGGLLAAGHPVGATGIMQAVFMFWQLQHTIKKHFHDDYLQVPNAKRGLIHSHAGTGTYVTVTIMEAAK | not soluble
MTIIKYIKFVVIIVIVTIVFSCSKNEAGNSEYDPSLPISLTDFFPIQGGMATRMVIEGANFGTDLSQIKVFFNQKEASILNVKNSIIYLLVPKLPGNDCIVTVKVGNQEARFTRNFQYIENYSVTTIAGQPGTNLFVEGTLAAAQFGPVQHLAIDDENNLFITERNGSDGKGTCSVLNEESGTVTFLFKASDNLNVPTVNAQTQNVYIPLDGGYTFYELNPVNQWIAKSRLVLHPSKEQQEAGMDDFEINWKHSLAFSRYDNMIYTRSYGGDLIKVDPETRVGQKIGNFFPNTDSFIVAHPTQPEILYIAYAAKHVIYTYNIETGEHKLFAGAFGQSGWNDGIATDAEFNSPRQMSLDMEGNIYIADSGNHCIRMIDKNGIVTTPIGQPGEAGYADGSPDMALLNDPRGVAVNSEGDVYIADLGNRCIRKLTLQLEHHHHHH | not soluble
MAHHHHHHMKGTLAGYTRGLHGQTKQTALVRVENVNTREDATWYVGKRVCYVYHGKKVKRCVRWSKAPARRSTTRALWGRVTRPHGNAGMMRVKFNGASVPASAIGRRIRVYLYPSQI | soluble
VRAPVTKVHGGAGSAQRMPLCDKCGSGIVGAVVKARDKYRHPECFVCADCNLNLKQKGYFFVEGELYCETHARART | soluble
RSARPPGPRVSRARCLPGLIAEQLLQQAARGQDRQQQLQRDPQKALCDLHPSWKEIQALQCRPGHPPEQPWETSQMPESQVKGSRRPKFHARPEDYAVSQPNRDIQEKREASLEESPVALGESASVPQVSETVPASQPLSKKTSSQSNSSSEGSMWATVPSSPTLDRDTASEVDDLEPDSVSLALEMGGSAAPAAPKLKIFMAQYNYNPFEGPNDHPEGELPLTAGDYIYIFGDMDEDGFYEGELDDGRRGLVPSNFVEQIPDSYIPGCLPAKSPDLGPSQLPAGQDEALEEDSLLSGKAQGVVDRGLCQMVRVGSKTEVATEILDTKTEACQLGLLQSMGKQGLSRPLLGTKGVLRMAPMQLHLQNVTATSANITWVYSSHRHPHVVYLDDREHALTPAGVSCYTFQGLCPGTHYRARVEVRLPRDLLQVYWGTMSSTVTFDTLLAGPPYPPLDVLVERHASPGVLVVSWLPVTIDSAGSSNGVQVTGYAVYADGLKVCEVADATAGSTLLEFSQLQVPLTWQKVSVRTMSLCGESLDSVPAQIPEDFFMCHRWPETPPFSYTCGDPSTYRVTFPVCPQKLSLAPPSAKASPHNPGSCGEPQAKFLEAFFEEPPRRQSPVSNLGSEGECPSSGAGSQAQELAEAWEGCRKDLLFQKSPQNHRPPSVSDQPGEKENCSQHMGTSKSPAPGFIHLRTECGPRKEPCQEKAALERVLRQKQDAQGFTPPQLGASQQYASDFHNVLKEEQEALCLDLWGTERREERREPEPHSRQGQALGVKRGCQLHEPSSALCPAPSAKVIKMPRGGPQQLGTGANTPARVFVALSDYNPLVMSANLKAAEEELVFQKKQLLRVWGSQDTHDFYLSECNRQVGNIPGCLVAEMEVGTEQTDRRWRSPAQGHLPSVAHLEDFQGLTIPQGSSLVLQGNSKRLPLWTPKIMIAALDYDPGDGQMGGQGKGRLALRAGDVVMVYGPMDDQGFYYGELGGHRGLVPAHLLDHMSLHGH | soluble
MAHHHHHHMKYTEITIDDGAYAKIFMHSIKYSCDDVCGILIGKYLSSNEKKKKCLITNYIPLFHTHILSPYLNLAFTLVENYYKDKDERIIGYFHISSDDSKNSDIENIKVCELISEKLIKNYNDAFVCLLEFSKYVNDEDNCLNIFMKNDKSNWEKGNVVISNKNKEFLKKNISNQHYLNIYDFDDHLNSMKCDFMNPDLFNNVS | not soluble
MSRRYDTIKHLGEGQFANVYLAQDLESGECVAIKKIKLGSREEAKDGINRTAIREIKLLKEIHHDNIIGLRDVIGHRTSIQLVFDFMDTDLEHVIKDKEIILMPAHIKNITMQMLLGLEFLHVHWILHRDLKPNNLLMNKMGRVKLTDFGLARFFGSPNRNYTHQVVTRWYRAPELLFGARSYGVGIDIWSVGCIIAELLLRNPIFPGESDIDQLVKIFNILGCPTPETWPNMTEMNSYVIIKPQTEYMALNYYFSAAPQDLLDLMAGMWTFDPIKRLTCTQSLQMEYFRTQPFCCLDEELPLPKKQQPQKRSRRLDDDGTRPVRRLNFD | not soluble
MGSDKIHHHHHHMKDVMFYFEIHQPFRLRPTNLYDVKSEQNVFWDEKNEEIFRRVAERSYIPATRNLMEYGIKSSFSITGTAVEQALMYNTKVIDAIDDYVKSGLCEMLSETYYHSLASIWNYDEFKRQVDMHRDLMKRIFNVVPKVFRNTELIYDDRIAEMVKRMGFTSIITEGTDSIVKDHSPNYRYASPSGLNLYLRNYVMSDNISFRFSNTKWKDYPLTADKYAKWINESEGDMVNLFMDYETFGEHQTQETGIFDFMKYLPVYFRDYGIETITISEAEKRHRVKDVLSIPETISWADTRRDLSAWLENEMQIDTFDRIKKCREKAGRLWGYLQTSDIIYYMSIGLEQDFTVHEYFNPYKSPYLAFIYTNYALDKICGSSYGKNEI | not soluble
KDWTQYVNPLMGSQSTFELSTGNTYPAIARPWGMNFWTPQTGKMGDGWQYTYTANKIRGFKQTHQPSPWINDYGQFSIMPIVGQPVFDEEKRASWFAHKGEVATPYYYKVYLAEHDIVTEMTPTERAVLFRFTFPENDHSYVVVDAFDKGSYIKIIPEENKIIGYTTRNSGGVPENFKNYFIIEFDKPFTYKATVENGNLQENVAEQTTDHAGAIIGFKTRKGEQVNARIASSFISFEQAAANMNELGKDNIEQLAQKGKDAWNQVLGKIEVEGGNLDQYRTFYSCLYRSLLFPRKFYELDANGQPIHYSPYNGQVLPGYMFTDTGFWDTFRCLFPLLNLMYPSVNKEMQEGLINTYLESGFFPEWASPGHRGCMVGNNSASILVDAYMKGVKVDDIKTLYEGLIHGTENVHPEVSSTGRLGYEYYNKLGYVPYDVKINENAARTLEYAYDDWCIYRLAKELKRPKKEISLFAKRAMNYKNLFDKESKLMRGRNEDGTFQSPFSPLKWGDAFTEGNSWHYTWSVFHDPQGLIDLMGGKEMFVTMMDSVFAVPPIFDDSYYGQVIHEIREMTVMNMGNYAHGNQPIQHMIYLYDYAGQPWKAQYWLRQVMDRMYTPGPDGYCGDEDNGQTSAWYVFSALGFYPVCPGTDEYVMGTPLFKKATLHFENGNSLVIDAPNNSTENFYIDSMSFNGADHTKNYLRHEDLFKGGTIKVDMSNRPNLNRGTKEEDMPYSFSKELEHHHHHH | soluble
MITLWENRDKWEEDSNLHGLLLTIIKNKALNYLAHLQVRLRAEEEINSHSQRELDLRISTLEACEPDAIFDSEIQHIVQKALKRMPNQSRQIFILSRYQNTPNKKIAEQLGISVKSVEFHITKALKILRTELKDYLVSILF | not soluble
MSDDGGFLSSQSSRELTEDDHEKLAKQTSISDFKRNKLEIDARKNWDKFYHRNKNNFFKDRNWSAEDLKMMCPDIDFEKEISYLEAGCGVGNMLFPLVAEIPNLKLFAFDFSDNAVKLLEERAKELELSVATSVVDLSIPSVSSPFEEQVDLATLIFVLSAIHPEKHQISAENVRKMIKIGGSVVVRDYGINDHAMIRFGREARISDRFYVRQDGTRAYYFDLNELSEVFEKSGFRCVRKEYLHRMTVNHQKGLKAPRIFVQARFIRES | not soluble
MFPSFITHIQSPNSHHHYSSPSFPFSSDFLESFDESFLINQFLLQQQDVAANVVESPWKFCKKLELKKKNEKCVDGSTSQEVQWRRTVKKRDRHSKICTAQGPRDRRMRLSLQIARKFFDLQDMLGFDKASKTIEWLFSKSKTSIKQLKERVAASEGGGKDEHLQVDEKEKDETLKLRVSKRRTKTMESSFKTKESRERARKRARERTMAKMKMRLFETSETISDPHQETREIKITNGVQLLEKENKEQEWSNTNDVHMVEYQMDSVSIIEKFLGLTSDSSSSSIFGDSEECYTSLSSVRGTISAAGNSNVLTKNPN | not soluble
EVKLQESGGDLVQPGGSLKLSCAASGFTFSSYTMSWVRQTPEKRLEWVASINNGGGRTYYPDTVKGRFTISRDNAKNTLYLQMSSLKSEDTAMYYCVRHEYYYAMDYWGQGTTVTVSSAWRHPQFGG | soluble
MSLVYLNSNFLYGDDFEPKKGTLVIEDEIIKGFTSEHHSNVLNYKGLVIPPLINSHTHIGDNSIKDIGIGKSLDELVKPPNGLKHKFLNTCSEKELVQGMSEGLYDLENNGIKAFCDFRENGLNGINSLKSAFEDSNVSIKPIILGRPTQREENLLKDEISIILDNCDGLGLSGSNEYSDQELKFICKLVNKKILSIHANEHKGSVQYSKEKYGISEIERLINLNIKPDFLIHATHSSSDDLSLLNENKIPVVVCPRANASFNVGLPDIPKMLEYNLKLGIGTDNFMANSPSIFKEMDFIYKIYHVDPKEILKMATINGAEILGLQNTGVIKEGYIPTFTFIKNGNILKTSKNIAASVVTRLENGDVDSKFLVCEGHHHHHH | not soluble
MSAETYVMEIDGGPGDLHCMKCLKICNYLKDSYCCKKTKNMTLPQKKAESAFLMICLQRNTIELMVTALLANKKIIDSKGNCAFCRNKKQHEEEKWCAGRTKLQLFLHRIDKDELKVEEYLEKYLEIKTRNRMEQLDIVQARIVREMKAVAIAQGKSEEEVEHILAKQGRKARRMQRSEYKHAEEDNKGVRQRLAAKLVAKKSEIIERFCLAQRTVFVKADCPNVYGRTTTHISYLLE | not soluble
MSLATVLVTGATGFIGSHVVEALAPRHDVVGLASSVYPSPRDAVRHVRMTLPHPDLEELVATLRPDVVVHCAGVASVGLSMHSPGVDFQSGPPVVFQLFDAIRKAGLASKVVLLSSAAVYGNPQSLPVGEDAPRAPISPYGWHKGMCEDIAQEFHGTYGIRSAVLRIFSCYGAGLRKQLLWDAAHKLLEGAFVFDGTGDETRDFIHVRDVAAFVTRLVEGWPDGGCVVCNVASGEATRIADLLALLPEAFGLSGVVPVFTGRVRGGDPHHWRADISRARQMGLAPAVSLEEGVREYATWFFAVTGGEGHHHHHH | soluble
MGHHHHHHSHMKEPLDGECGKAVVPQQELLDKIKEEPDNAQEYGCVQQPKTQESKLKIGGVSSVNERPIAQQLNPGFQLSFASSGPSVLLPSVPAVAIKVFCSGCKKMLYKGQTAYHKTGSTQLFCSTRCITRHSSPACLPPPPKKTCTNCSKYKILNIPFYFTFF | not soluble
MGSDKIHHHHHHMEKQKEVQKEYEEYQYMLDTETWKKELSQFKLSSSEKISKNPKVSIIIANYNNAPYLKKMMDSLVQQTIGIEQLQVMFIDDCSTDHSLKVIEPYLERYPNIEIYQLLENTGGAHGPRNVGIVNARGEYSVFLDADDWYDLNALKYLSDLLDDSHDDFAVSGLIQSTDGHLMLKSKPYYVDGSFKNRSIQELPAEFYGWLGPQAIMLRTSLIHNNNLHFVNQRVADDVLFFYEAMRFSKTITQGERLTTYLNRDADNESLSKSINRTFMLSWLRALSYINQQFPDDLSKERMLARRLEWLIYDFCIRRNTGYPFSKRRLQDFKVQMDQYLGELNFDPSPYFRSDVRQIIWTFLQTNDIDGLYWFIQCQSIRWVLVNRFGYVSKTERSYYYPRLLKRFPAVRMNAYAEATQREGNTLSLNVYTHQKITGFEIKELKNPFETRQRLAFKKISETSYQVELPEKFSNKESRFTIVFDNYLEIGVKDFSKFFA | not soluble
